B1: ABT700-vc-MMAE (DAR9.7) (antibody, INN chains, looked up, V domains shown)
VH: QVQLVQSGAEVKKPGASVKVSCKASGYIFTAYTMHWVRQAPGQGLEWMGWIKPNNGLANYAQKFQGRVTMTRDTSISTAYMELSRLRSDDTAVYYCARSEITTEFDYWGQGTLVTVSS
VL: DIVMTQSPDSLAVSLGERATINCKSSESVDSYANSFLHWYQQKPGQPPKLLIYRASTRESGVPDRFSGSGSGTDFTLTISSLQAEDVAVYYCQQSKEDPLTFGGGTKVEIK
modifications: vc-MMAE, DAR 9.7
B2: ABT700-Vc-MMAE (DAR4) (antibody, INN chains, looked up, V domains shown)
VH: B1 VH
VL: B1 VL
modifications: vc-MMAE, DAR 4

Tests used:
[1] = molecular target: human c-Met on tumor cells (MKN45, NCI-H358, NCI-H69, LS1034, NCI-H716, MDA-MB-468) (human) (UniProt P08581); assay: flow cytometry on NCI-H358 cells
human c-Met on tumor cells (MKN45, NCI-H358, NCI-H69, LS1034, NCI-H716, MDA-MB-468) (human), sequence (P08581 25-1390): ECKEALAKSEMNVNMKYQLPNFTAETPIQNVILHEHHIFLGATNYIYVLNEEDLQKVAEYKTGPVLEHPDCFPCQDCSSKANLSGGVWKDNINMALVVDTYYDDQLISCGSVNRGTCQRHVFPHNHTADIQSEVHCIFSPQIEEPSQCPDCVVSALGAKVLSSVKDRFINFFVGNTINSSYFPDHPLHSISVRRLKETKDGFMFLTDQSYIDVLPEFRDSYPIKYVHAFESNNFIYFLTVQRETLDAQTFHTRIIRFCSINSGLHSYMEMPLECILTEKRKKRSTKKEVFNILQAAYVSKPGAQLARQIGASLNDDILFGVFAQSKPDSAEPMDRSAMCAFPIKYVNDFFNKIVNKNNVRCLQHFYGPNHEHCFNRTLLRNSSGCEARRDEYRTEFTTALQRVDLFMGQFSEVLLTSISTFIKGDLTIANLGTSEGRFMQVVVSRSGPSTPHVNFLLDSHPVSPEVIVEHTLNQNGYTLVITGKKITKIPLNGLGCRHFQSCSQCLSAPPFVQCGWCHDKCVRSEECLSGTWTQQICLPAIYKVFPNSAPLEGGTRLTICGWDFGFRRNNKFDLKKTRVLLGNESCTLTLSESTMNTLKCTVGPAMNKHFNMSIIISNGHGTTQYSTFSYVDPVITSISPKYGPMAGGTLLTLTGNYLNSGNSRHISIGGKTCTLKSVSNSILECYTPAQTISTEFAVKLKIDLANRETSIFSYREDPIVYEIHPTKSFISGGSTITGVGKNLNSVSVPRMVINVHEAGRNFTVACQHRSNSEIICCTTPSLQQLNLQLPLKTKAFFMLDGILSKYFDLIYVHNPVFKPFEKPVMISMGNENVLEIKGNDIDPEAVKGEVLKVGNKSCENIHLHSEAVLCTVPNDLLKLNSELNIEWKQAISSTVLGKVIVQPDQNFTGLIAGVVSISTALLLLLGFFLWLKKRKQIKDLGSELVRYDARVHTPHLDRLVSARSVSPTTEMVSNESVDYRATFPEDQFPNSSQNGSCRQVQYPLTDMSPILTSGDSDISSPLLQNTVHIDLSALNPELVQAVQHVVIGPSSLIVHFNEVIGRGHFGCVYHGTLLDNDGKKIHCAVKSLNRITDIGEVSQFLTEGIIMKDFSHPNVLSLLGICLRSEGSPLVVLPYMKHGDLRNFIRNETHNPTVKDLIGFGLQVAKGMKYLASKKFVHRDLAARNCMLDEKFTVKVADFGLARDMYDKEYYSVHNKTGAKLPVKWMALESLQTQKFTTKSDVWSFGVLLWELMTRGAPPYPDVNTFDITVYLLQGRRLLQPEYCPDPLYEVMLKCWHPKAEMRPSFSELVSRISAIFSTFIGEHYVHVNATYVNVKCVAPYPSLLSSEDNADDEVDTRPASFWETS

[2] = molecular target: human c-Met on tumor cells (MKN45, NCI-H358, NCI-H69, LS1034, NCI-H716, MDA-MB-468) (human) (UniProt P08581); assay: flow cytometry on LS1034 cells
[3] = molecular target: h.cMet-ECD-His (Human HGF R/c-MET Protein, His Tag, Acrobiosystems MET-H5227) (human) (UniProt P08581); assay: ELISA, h.cMet-ECD-His captured by anti-His-Rabbit Fc
h.cMet-ECD-His (Human HGF R/c-MET Protein, His Tag, Acrobiosystems MET-H5227) (human), sequence (P08581 25-932): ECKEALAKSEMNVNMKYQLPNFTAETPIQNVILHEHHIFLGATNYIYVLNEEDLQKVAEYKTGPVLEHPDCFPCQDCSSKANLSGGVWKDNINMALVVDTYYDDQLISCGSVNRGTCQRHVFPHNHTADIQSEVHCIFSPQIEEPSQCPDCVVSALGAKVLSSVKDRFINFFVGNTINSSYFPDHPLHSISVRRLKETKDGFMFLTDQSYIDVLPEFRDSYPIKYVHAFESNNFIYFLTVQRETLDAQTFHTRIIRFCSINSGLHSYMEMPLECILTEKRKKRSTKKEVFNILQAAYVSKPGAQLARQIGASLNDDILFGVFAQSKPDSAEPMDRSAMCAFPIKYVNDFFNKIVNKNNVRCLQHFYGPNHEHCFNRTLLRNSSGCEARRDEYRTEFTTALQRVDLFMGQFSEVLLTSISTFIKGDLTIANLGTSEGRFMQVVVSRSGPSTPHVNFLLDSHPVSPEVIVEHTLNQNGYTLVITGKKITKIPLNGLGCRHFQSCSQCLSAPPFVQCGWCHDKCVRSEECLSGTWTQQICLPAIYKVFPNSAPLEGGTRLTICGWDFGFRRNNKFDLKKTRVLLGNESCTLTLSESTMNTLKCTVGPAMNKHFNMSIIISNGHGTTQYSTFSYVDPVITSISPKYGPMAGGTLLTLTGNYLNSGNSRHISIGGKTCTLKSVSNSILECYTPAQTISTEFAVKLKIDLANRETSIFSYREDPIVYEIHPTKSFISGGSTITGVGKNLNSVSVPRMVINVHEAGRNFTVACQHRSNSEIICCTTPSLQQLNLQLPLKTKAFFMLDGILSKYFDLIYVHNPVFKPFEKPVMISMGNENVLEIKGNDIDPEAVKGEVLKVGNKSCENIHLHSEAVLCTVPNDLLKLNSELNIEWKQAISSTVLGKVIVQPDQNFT

[4] = molecular target: human c-Met on tumor cells (MKN45, NCI-H358, NCI-H69, LS1034, NCI-H716, MDA-MB-468) (human) (UniProt P08581); assay: flow cytometry on NCI-H69 cells
[5] = molecular target: human c-Met on tumor cells (MKN45, NCI-H358, NCI-H69, LS1034, NCI-H716, MDA-MB-468) (human) (UniProt P08581); assay: flow cytometry on NCI-H716 cells

Binder | EC50 [1] [nM] | Maximum signal value [1] | EC50 [2] [nM] | Maximum signal value [2] | EC50 [3] [µg/mL] | EC50 [4] [nM] | Maximum signal value [4] | EC50 [5] [nM] | Maximum signal value [5]
B1 | 0.917 | 32400 | 0.852 | 8960 | 2.43 | 0.212 | 8210 | – | –
B2 | – | – | – | – | – | – | – | 11.6 | 3740

— US20260216354A1, “ANTI-CMET ANTIBODY, ANTIBODY-DRUG CONJUGATE, AND PREPARATION METHOD THEREFOR AND USE THEREOF” (MEDILINK THERAPEUTICS (SUZHOU) CO., LTD., priority 2022, published 2026)
